Measurements as given in patent publication US20250011413A1 (MCMASTER UNIVERSITY, published 2025).

Key:
[1] = target: T1, PF4/heparin complex (human PF4 complexed with heparin) (human, UniProt P02776 32-101); assay: competition EIA, scFv 50 µg/mL; competitor HIT-negative sera antibodies, n=10
T1 construct: Multimeric complex of PF4 with heparin (not a protein); In the EIAs: PF4 captured on biotinylated heparin on streptavidin plates; In the SRA: platelets with 0.2 U/mL heparin; also called PF4 and heparin complexes
T1 sequence: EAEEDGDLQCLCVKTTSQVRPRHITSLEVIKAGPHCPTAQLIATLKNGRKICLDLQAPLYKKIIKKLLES
Description: (§1) Inhibitory PF4/heparin IgG-specific Streptavidin Enzyme Immunoassay (EIA). The binding activity of wildtype and mutant scFv antibodies to PF4/heparin complexes was measured using an inhibitory PF4/heparin IgG-specific EIA with a streptavidin-biotin capture system. Before performing this protocol, 96-well NUNC Maxisorp plates (ThermoFisher) were coated with 10 μg/mL streptavidin for 24 h. Plates were then blocked with 3% bovine serum albumin (BSA) in phosphate buffered saline (PBS) for 2 h at room temperature. Plates were then coated with 1 U/mL biotinylated-heparin for 1 h followed by 30 μg/mL PF4 for 1 h. Increasing concentrations of wildtype or mutant scFv were added and incubated for 1 hr at room temperature. Without removing wildtype or scFv, HIT patient sera in a 1:50 dilution or full-length KKO (2 μg/mL) was then incubated for 1 h at room temperature. After washing, alkaline phosphatase-conjugated anti-human or anti-mouse IgG (Jackson Immuno Research Laboratories, Inc., West Grove, PA) was added at a 1:4000 dilution and incubated for 1 h temperature. For detection, 1 mg/mL p-nitrophenylphosphate (PNPP, Sigma-Aldrich) substrate dissolved in 1 mol/L diethanolamine (DEA) buffer (pH 9.6) was added. The optical density (OD) was measured at 2 min intervals for 30 min at 405 nm (OD₄₀₅ₙₘ) using a BioTek 800 TS plate reader (BioTek Instruments Inc., Winooski, VT) to determine if anti-PF4/heparin antibody binding was inhibited. Results were reported as a decrease in OD (absorbance at 405 nm) from baseline levels.
Sera (n=10) from confirmed HIT-negative patients (EIA-positive/SRA-negative) containing anti-PF4/heparin antibodies were then used in the same EIA with scFv constructs to determine if antibody binding was decreased in this cohort (Table 5).

[2] = target: T2, Human PF4 (CXCL4), biotinylated, without heparin (human, UniProt P02776 32-101, biotinylated with EZ-link-Sulfo-NHS-LC-Biotin (sites not given)); assay: BLI (Octet), biotinylated PF4 without heparin on streptavidin sensors, scFv 1 µg/mL
T2 construct: Immobilised on streptavidin biosensors for BLI; also called PF4 alone; platelet factor 4
T2 sequence: T1 sequence
Description: (§2) The Octet-QK Red 96 (FortéBio, Menlo Park, CA) instrumentation was used to conduct all BLI experiments. A 96-well microtiter plate (black, flat-bottom) was used to hold 200 μL per well of either sample or buffer. Pre-coated streptavidin biosensor tips (FortéBio) were hydrated in phosphate buffered saline (PBS) containing 1% bovine serum albumin (BSA, Sigma-Aldrich) before performing all kinetic assays. Each step was performed at an operating temperature of 23° C. with agitation at 1000 rpm. Streptavidin tips were first equilibrated in PBS+1% BSA to establish a baseline. […] The PF4-coated tips were then dipped into PBS+1% BSA for 13 minutes to re-establish a baseline. Tips were then incubated in an analyte solution containing half-fold dilutions of wildtype scFv (4.0, 2.0, 1.0, 0.5, 0.25 μg/mL in PBS+1% BSA) for 10 minutes to measure association. For mutant scFv association, tips were incubated in an analyte solution containing 200 μL of each mutant and wildtype scFv at a final concentration of 1 μg/mL in PBS+1% BSA. Antibody dissociation steps were performed by dipping sensors in wells containing PBS+1% BSA for 56 minutes. The following negative controls included in these kinetic experiments were also measured: 200 μL of buffer to replace both the antigen and scFv and 200 μL buffer replacing scFv only. Each experiment was performed with PF4 or with PF4/heparin as the immobilized antigen.
(§3) BLI experiments were performed to evaluate binding responses and affinities of wildtype and mutant scFv. Biotinylated PF4 alone or complexed with heparin was immobilized on streptavidin biosensors and used to capture wildtype scFv. Half-fold serial dilutions of wildtype scFv ranging from 0.25 μg/mL to 4 μg/mL were used to determine the optimal concentrations for future experiments PF4 (PF4 FIG. 3; PF4/heparin FIG. 4).

[3] = target: T1, PF4/heparin complex (human PF4 …); assay: BLI (Octet), biotinylated PF4/heparin on streptavidin sensors, scFv 1 µg/mL, 1:1 model
Description: as §2, §3

[4] = target: T1, PF4/heparin complex (human PF4 …); assay: competition EIA, scFv 50 µg/mL; competitor HIT-positive sera antibodies, n=10
Description: as §1
Inhibiting HIT-Positive (EIA+/SRA+) HIT-Negative (EIA+/SRA−) antibody binding: Sera (n=10) from confirmed HIT-positive patients (EIA-positive/SRA-positive) containing anti-PF4/heparin antibodies were used in a modified streptavidin-biotin based anti-PF4/heparin IgG EIA (streptavidin anti-PF4/hep EIA) with scFv at 50 μg/mL. On average, antibody binding to PF4/heparin was reduced in the presence of scFv.

[5] = target: T1, PF4/heparin complex (human PF4 …); assay: BLI (Octet), biotinylated PF4/heparin on streptavidin sensors, scFv 1 µg/mL
Description: as §2, §3

[6] = target: T1, PF4/heparin complex (human PF4 …); assay: competition EIA, scFv 50 µg/mL; competitor HIT-positive sera antibodies, n=10; remark: listed apart in the source
[7] = target: T1, PF4/heparin complex (human PF4 …); assay: BLI (Octet), biotinylated PF4/heparin on streptavidin sensors, scFv at 1 µg/mL, 1:1 model, mean ± s.d.
Description: BLI experiments were performed using wildtype scFv, mutant B, mutant C, mutant D, mutant E, and mutant F at 1 μg/mL. Binding was measured against immobilized biotinylated PF4/heparin complexes on streptavidin biosensors. b) Table showing kinetic data of wildtype and mutant scFv, including binding responses and association and dissociation rates. All data was analyzed based on a 1:1 homogenous ligand binding model using Octet®) User Software version 3.1.
as §2
(§4) BLI experiments were performed to evaluate binding responses and affinities of wildtype and mutant scFv. Biotinylated PF4 alone or complexed with heparin was immobilized on streptavidin biosensors and used to capture wildtype scFv.

[8] = target: T2, Human PF4 (CXCL4), biotinylated, …; assay: BLI (Octet), biotinylated PF4 without heparin on streptavidin sensors, scFv at 1 µg/mL, 1:1 model, mean ± s.d. [cont.) b]
Description: BLI experiments were performed using wildtype scFv, mutant B, mutant C, mutant D, mutant E, and mutant F at 1 μg/mL. Binding was measured against immobilized biotinylated PF4 on streptavidin biosensors. b) Table showing kinetic data of wildtype and mutant scFv, including binding responses and association and dissociation rates. All data was analyzed based on a 1:1 homogenous ligand binding model using Octet® User Software version 3.1.
as §2, §4

[9] = target: T1, PF4/heparin complex (human PF4 …); assay: cell-based or functional assay
[10] = target: T1, PF4/heparin complex (human PF4 …); assay: competition EIA, scFv 50 µg/mL; competitor HIT-negative sera antibodies, n=10; remark: listed apart in the source
[11] = target: T2, Human PF4 (CXCL4), biotinylated, …; assay: BLI (Octet), biotinylated PF4 without heparin on streptavidin sensors, scFv 1 µg/mL, 1:1 model
Description: as §2, §3

B1: Mutant C scFv, scFv(S50N, Y53H) (scFv)
scFv: DIQMIQSQKFMSTSVGDRVTVTCKASQNVGTNVAWYQQKPGQSPNALIYNASHRYSGVPDRFTGSGSGTDFTLTITNVQSEDLADYFCQQYNSYPLTFGTGTKLDLKGGGGSGGGGSGGGGSVQLQQSGAELVKPGASVKLSCKASGYTFTNYFIYWVKQRPGQGLEWIGEINPRNGDTDFNEKFESRATLTVDKSSSTAYMQLSSLTSEDSAIYYCTRSPYGNNYGFTYWGQGTLVTVSA
notes: VL-linker-VH; histidine-tagged, from E. coli BL21; also called Mut C; not shown: histidine tag from the pADL-22c vector
mean OD405nm of bound serum IgG (+ scFv) [1]: 1.24 OD405nm
average binding response (wavelength shift) [2]: 0.0399 nm
Kd [3]: 3.81 nM
fold increased affinity against wildtype scFv [3]: 10 fold
mean OD405nm of bound serum IgG (+ scFv) [4]: 0.799 OD405nm
average binding response (wavelength shift) [5]: 0.159 nm
fold higher binding response than wildtype scFv [5]: 2 fold
mean % inhibition of serum antibody binding [6]: 50.6%
koff [7]: 0.000477 s⁻¹
kon [7]: 85800 M⁻¹ s⁻¹
koff [8]: 0.000215 s⁻¹
kon [8]: 16900 M⁻¹ s⁻¹
% inhibition of 14C-serotonin release (SRA), HIT-Positive Patient #1 serum, scFv 50 µg/mL [9]: 14.4%
% inhibition of 14C-serotonin release (SRA), HIT-Positive Patient #1 serum, scFv 75 µg/mL [9]: 22.2%
% inhibition of 14C-serotonin release (SRA), HIT-Positive Patient #2 serum, scFv 50 µg/mL [9]: 15.4%
% inhibition of 14C-serotonin release (SRA), HIT-Positive Patient #2 serum, scFv 75 µg/mL [9]: 21.8%
% inhibition of 14C-serotonin release (SRA), HIT-Positive Patient #3 serum, scFv 50 µg/mL [9]: -1.2%
% inhibition of 14C-serotonin release (SRA), HIT-Positive Patient #3 serum, scFv 75 µg/mL [9]: 9.6%
% inhibition of 14C-serotonin release (SRA), HIT-Positive Patient #4 serum, scFv 50 µg/mL [9]: 3.3%
% inhibition of 14C-serotonin release (SRA), HIT-Positive Patient #4 serum, scFv 75 µg/mL [9]: 5.6%
% inhibition of 14C-serotonin release (SRA), HIT-Positive Patient #5 serum, scFv 50 µg/mL [9]: 22.2%
% inhibition of 14C-serotonin release (SRA), HIT-Positive Patient #5 serum, scFv 75 µg/mL [9]: 6.9%
mean % inhibition of serum antibody binding [10]: -42.5%
Kd [11]: 1660 nM
